{"source": "patent US20230312742A1", "about": "(Y MABS THERAPEUTICS, published 2023)"}
{"molecular_target": "human CD38 antigen (recombinant human CD38 protein) (human, UniProt P28907 43-300, limits assumed)", "assay": "SPR, IgG captured on anti-human Fc, human CD38 in solution;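 note: humanized IgG captured on an amine-coupled anti-human Fc HC30M chip, with human CD38 injected as a dilution series from 1000 nM downward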", "units": {"Kd": "nM"}}
{"binder": "L1H1 (antibody, V domains shown, Humanized AT13/5 IgG, VL1 + VH1) VH: QVQLQESGPGLVKPSETLSLTCTVSGFSLTSYGVHWIRQPPGKGLEWIGVMWRGGSTDYNPSLKSRVTISKDNSKRQFSLKLSSVTAADTAVYYCAKSMITTGFVMDSWGQGTLVTVSS VL: DIQMTQSPSSLSASVGDRVTITCRASEDIYNRLTWYQQKPGKAPKLLLSGATSLETGVPSRFSGSGSGKDYTLTISSLQPEDFATYYCQQYWSNPYTFGGGTKVEIK", "Kd": 870}
{"binder": "L1H3 (antibody, V domains shown, Humanized AT13/5 IgG, VL1 + VH3) VH: QVQLQESGPGLVKPSETLSITCTVSGFSLTSYGVHWIRQPPGKGLEWIGVMWRGGSTDYNPSLKSRVTISKDTSKNQFSLKLSSLTAADTAVYYCAKSMITTGFVMDSWGQGTLVTVSS VL: DIQMTQSPSSLSASVGDRVTITCRASEDIYNRLTWYQQKPGKAPKLLLSGATSLETGVPSRFSGSGSGKDYTLTISSLQPEDFATYYCQQYWSNPYTFGGGTKVEIK", "Kd": 810}
{"binder": "L1H2 (antibody, V domains shown, Humanized AT13/5 IgG, VL1 + VH2) VH: QVQLQESGPGLVKPSETLSLTCTVSGFSLTSYGVHWVRQPPGKGLEWIGVMWRGGSTDYNPSLKSRVTISKDNSKRQFSLKMSSVTAADTAVYYCAKSMITTGFVMDSWGQGTLVTVSS VL: DIQMTQSPSSLSASVGDRVTITCRASEDIYNRLTWYQQKPGKAPKLLLSGATSLETGVPSRFSGSGSGKDYTLTISSLQPEDFATYYCQQYWSNPYTFGGGTKVEIK", "Kd": 400}
{"binder": "L4H3 (antibody, V domains shown, Humanized AT13/5 IgG, VL4 + VH3) VH: QVQLQESGPGLVKPSETLSITCTVSGFSLTSYGVHWIRQPPGKGLEWIGVMWRGGSTDYNPSLKSRVTISKDTSKNQFSLKLSSLTAADTAVYYCAKSMITTGFVMDSWGQGTLVTVSS VL: DIQMTQSPSSLSASVGDRVTITCRASEDIYNRLTWYQQKPGKAPKLLLYGATSLETGVPSRFSGSGSGKDYTLTISSLQPEDFATYYCQQYWSNPYTFGGGTKVEIK", "Kd": 200}
{"binder": "L2H2 (antibody, V domains shown, Humanized AT13/5 IgG, VL2 + VH2) VH: QVQLQESGPGLVKPSETLSLTCTVSGFSLTSYGVHWVRQPPGKGLEWIGVMWRGGSTDYNPSLKSRVTISKDNSKRQFSLKMSSVTAADTAVYYCAKSMITTGFVMDSWGQGTLVTVSS VL: DIQMTQSPSSLSASVGDRVTITCRASEDIYNRLAWYQQKPGKAPKLLLSGATSLETGVPSRFSGSGSGTDYTLTISSLQPEDFATYYCQQYWSNPYTFGGGTKVEIK", "Kd": 910}
{"binder": "L1H6 (antibody, V domains shown, Humanized AT13/5 IgG, VL1 + VH6) VH: QVQLQESGPGLVKPSETLSLTCTVSGFSLTSYGVHWIRQPPGKGLEWLGVMWRGGSTNYNPSLKSRVTISKDTSKNQFSLKLSSVTAADTAVYYCAKSMITTGFVMDSWGQGTLVTVSS VL: DIQMTQSPSSLSASVGDRVTITCRASEDIYNRLTWYQQKPGKAPKLLLSGATSLETGVPSRFSGSGSGKDYTLTISSLQPEDFATYYCQQYWSNPYTFGGGTKVEIK", "Kd": 31}
{"binder": "L3H7 (antibody, V domains shown, Humanized AT13/5 IgG, VL3 + VH7) VH: QVQLKQSGPGLVKPSETLSLTCTVSGFSLTSYGVHWIRQPPGKGLEWIGVMWRGGSTNYNPSLKSRLTISVDTSKNQFSLKLSSVTAADTAVYYCAKSMITTGFVMDSWGQGTLVTVSS VL: DIQMTQSPSSLSASVGDRVTITCRASEDIYNRLTWYQQKPGKAPKLLLSGATSLETGVPSRFSGSGSGTDYTLTISSLQPEDFATYYCQQYWSNPYTFGGGTKVEIK", "Kd": 100}
{"binder": "L1H4 (antibody, V domains shown, Humanized AT13/5 IgG, VL1 + VH4) VH: QVQLQESGPGLVKPSETLSLTCTVSGFSLTSYGVHWIRQPPGKGLEWIGVMWRGGSTDYNPSLKSRVTISVDTSKRQVSLKLSSVTAADTAVYYCAKSMITTGFVMDSWGQGTLVTVSS VL: DIQMTQSPSSLSASVGDRVTITCRASEDIYNRLTWYQQKPGKAPKLLLSGATSLETGVPSRFSGSGSGKDYTLTISSLQPEDFATYYCQQYWSNPYTFGGGTKVEIK", "Kd": 300}
{"binder": "L3H4 (antibody, V domains shown, Humanized AT13/5 IgG, VL3 + VH4) VH: QVQLQESGPGLVKPSETLSLTCTVSGFSLTSYGVHWIRQPPGKGLEWIGVMWRGGSTDYNPSLKSRVTISVDTSKRQVSLKLSSVTAADTAVYYCAKSMITTGFVMDSWGQGTLVTVSS VL: DIQMTQSPSSLSASVGDRVTITCRASEDIYNRLTWYQQKPGKAPKLLLSGATSLETGVPSRFSGSGSGTDYTLTISSLQPEDFATYYCQQYWSNPYTFGGGTKVEIK", "Kd": 1200}
{"binder": "L2H3 (antibody, V domains shown, Humanized AT13/5 IgG, VL2 + VH3) VH: QVQLQESGPGLVKPSETLSITCTVSGFSLTSYGVHWIRQPPGKGLEWIGVMWRGGSTDYNPSLKSRVTISKDTSKNQFSLKLSSLTAADTAVYYCAKSMITTGFVMDSWGQGTLVTVSS VL: DIQMTQSPSSLSASVGDRVTITCRASEDIYNRLAWYQQKPGKAPKLLLSGATSLETGVPSRFSGSGSGTDYTLTISSLQPEDFATYYCQQYWSNPYTFGGGTKVEIK", "Kd": 830}
{"binder": "L2H1 (antibody, V domains shown, Humanized AT13/5 IgG, VL2 + VH1) VH: QVQLQESGPGLVKPSETLSLTCTVSGFSLTSYGVHWIRQPPGKGLEWIGVMWRGGSTDYNPSLKSRVTISKDNSKRQFSLKLSSVTAADTAVYYCAKSMITTGFVMDSWGQGTLVTVSS VL: DIQMTQSPSSLSASVGDRVTITCRASEDIYNRLAWYQQKPGKAPKLLLSGATSLETGVPSRFSGSGSGTDYTLTISSLQPEDFATYYCQQYWSNPYTFGGGTKVEIK", "Kd": 950}
{"binder": "L4H4 (antibody, V domains shown, Humanized AT13/5 IgG, VL4 + VH4) VH: QVQLQESGPGLVKPSETLSLTCTVSGFSLTSYGVHWIRQPPGKGLEWIGVMWRGGSTDYNPSLKSRVTISVDTSKRQVSLKLSSVTAADTAVYYCAKSMITTGFVMDSWGQGTLVTVSS VL: DIQMTQSPSSLSASVGDRVTITCRASEDIYNRLTWYQQKPGKAPKLLLYGATSLETGVPSRFSGSGSGKDYTLTISSLQPEDFATYYCQQYWSNPYTFGGGTKVEIK", "Kd": 140}
{"binder": "L3H2 (antibody, V domains shown, Humanized AT13/5 IgG, VL3 + VH2) VH: QVQLQESGPGLVKPSETLSLTCTVSGFSLTSYGVHWVRQPPGKGLEWIGVMWRGGSTDYNPSLKSRVTISKDNSKRQFSLKMSSVTAADTAVYYCAKSMITTGFVMDSWGQGTLVTVSS VL: DIQMTQSPSSLSASVGDRVTITCRASEDIYNRLTWYQQKPGKAPKLLLSGATSLETGVPSRFSGSGSGTDYTLTISSLQPEDFATYYCQQYWSNPYTFGGGTKVEIK", "Kd": 460}
{"binder": "L3H6 (antibody, V domains shown, Humanized AT13/5 IgG, VL3 + VH6) VH: QVQLQESGPGLVKPSETLSLTCTVSGFSLTSYGVHWIRQPPGKGLEWLGVMWRGGSTNYNPSLKSRVTISKDTSKNQFSLKLSSVTAADTAVYYCAKSMITTGFVMDSWGQGTLVTVSS VL: DIQMTQSPSSLSASVGDRVTITCRASEDIYNRLTWYQQKPGKAPKLLLSGATSLETGVPSRFSGSGSGTDYTLTISSLQPEDFATYYCQQYWSNPYTFGGGTKVEIK", "Kd": 1300}
{"binder": "L1H5 (antibody, V domains shown, Humanized AT13/5 IgG, VL1 + VH5) VH: QVQLQESGPGLVKPSETLSLTCTVSGFSLTSYGVHWIRQPPGKGLEWIGVMWRGGSTDYNPSLKSRVTISVDTSKNQFSFKLSSVTAADTAIYYCAKSMITTGFVMDSWGQGTLVTVSS VL: DIQMTQSPSSLSASVGDRVTITCRASEDIYNRLTWYQQKPGKAPKLLLSGATSLETGVPSRFSGSGSGKDYTLTISSLQPEDFATYYCQQYWSNPYTFGGGTKVEIK", "Kd": 1800}
{"binder": "L4H1 (antibody, V domains shown, Humanized AT13/5 IgG, VL4 + VH1) VH: QVQLQESGPGLVKPSETLSLTCTVSGFSLTSYGVHWIRQPPGKGLEWIGVMWRGGSTDYNPSLKSRVTISKDNSKRQFSLKLSSVTAADTAVYYCAKSMITTGFVMDSWGQGTLVTVSS VL: DIQMTQSPSSLSASVGDRVTITCRASEDIYNRLTWYQQKPGKAPKLLLYGATSLETGVPSRFSGSGSGKDYTLTISSLQPEDFATYYCQQYWSNPYTFGGGTKVEIK", "Kd": 100}
{"binder": "L2H7 (antibody, V domains shown, Humanized AT13/5 IgG, VL2 + VH7) VH: QVQLKQSGPGLVKPSETLSLTCTVSGFSLTSYGVHWIRQPPGKGLEWIGVMWRGGSTNYNPSLKSRLTISVDTSKNQFSLKLSSVTAADTAVYYCAKSMITTGFVMDSWGQGTLVTVSS VL: DIQMTQSPSSLSASVGDRVTITCRASEDIYNRLAWYQQKPGKAPKLLLSGATSLETGVPSRFSGSGSGTDYTLTISSLQPEDFATYYCQQYWSNPYTFGGGTKVEIK", "Kd": 390}
{"binder": "L3H3 (antibody, V domains shown, Humanized AT13/5 IgG, VL3 + VH3) VH: QVQLQESGPGLVKPSETLSITCTVSGFSLTSYGVHWIRQPPGKGLEWIGVMWRGGSTDYNPSLKSRVTISKDTSKNQFSLKLSSLTAADTAVYYCAKSMITTGFVMDSWGQGTLVTVSS VL: DIQMTQSPSSLSASVGDRVTITCRASEDIYNRLTWYQQKPGKAPKLLLSGATSLETGVPSRFSGSGSGTDYTLTISSLQPEDFATYYCQQYWSNPYTFGGGTKVEIK", "Kd": 1200}
{"binder": "L1H7 (antibody, V domains shown, Humanized AT13/5 IgG, VL1 + VH7) VH: QVQLKQSGPGLVKPSETLSLTCTVSGFSLTSYGVHWIRQPPGKGLEWIGVMWRGGSTNYNPSLKSRLTISVDTSKNQFSLKLSSVTAADTAVYYCAKSMITTGFVMDSWGQGTLVTVSS VL: DIQMTQSPSSLSASVGDRVTITCRASEDIYNRLTWYQQKPGKAPKLLLSGATSLETGVPSRFSGSGSGKDYTLTISSLQPEDFATYYCQQYWSNPYTFGGGTKVEIK", "Kd": 8500}
{"binder": "L2H6 (antibody, V domains shown, Humanized AT13/5 IgG, VL2 + VH6) VH: QVQLQESGPGLVKPSETLSLTCTVSGFSLTSYGVHWIRQPPGKGLEWLGVMWRGGSTNYNPSLKSRVTISKDTSKNQFSLKLSSVTAADTAVYYCAKSMITTGFVMDSWGQGTLVTVSS VL: DIQMTQSPSSLSASVGDRVTITCRASEDIYNRLAWYQQKPGKAPKLLLSGATSLETGVPSRFSGSGSGTDYTLTISSLQPEDFATYYCQQYWSNPYTFGGGTKVEIK", "Kd": 1900}
{"binder": "L4H2 (antibody, V domains shown, Humanized AT13/5 IgG, VL4 + VH2) VH: QVQLQESGPGLVKPSETLSLTCTVSGFSLTSYGVHWVRQPPGKGLEWIGVMWRGGSTDYNPSLKSRVTISKDNSKRQFSLKMSSVTAADTAVYYCAKSMITTGFVMDSWGQGTLVTVSS VL: DIQMTQSPSSLSASVGDRVTITCRASEDIYNRLTWYQQKPGKAPKLLLYGATSLETGVPSRFSGSGSGKDYTLTISSLQPEDFATYYCQQYWSNPYTFGGGTKVEIK", "Kd": 250}
{"binder": "L3H1 (antibody, V domains shown, Humanized AT13/5 IgG, VL3 + VH1) VH: QVQLQESGPGLVKPSETLSLTCTVSGFSLTSYGVHWIRQPPGKGLEWIGVMWRGGSTDYNPSLKSRVTISKDNSKRQFSLKLSSVTAADTAVYYCAKSMITTGFVMDSWGQGTLVTVSS VL: DIQMTQSPSSLSASVGDRVTITCRASEDIYNRLTWYQQKPGKAPKLLLSGATSLETGVPSRFSGSGSGTDYTLTISSLQPEDFATYYCQQYWSNPYTFGGGTKVEIK", "Kd": 650}
